Biological target: holo-SDHA-SDHAF2 complex (preformed from purified proteins) (human) (UniProt P31040)
Assay: pull-down; preformed holo-SDHA-SDHAF2 (2 µM, His6 on SDHA) incubated with SDHAF4 or its variants, with or without 5 mM fumarate, 30 min 25 °C, then held on Ni-NTA agarose; SDS-PAGE with Coomassie, western blot for the truncated variants

Chain of holo-SDHA-SDHAF2 complex (preformed from purified proteins) (human) (P31040 43-664, chain 1 of 2): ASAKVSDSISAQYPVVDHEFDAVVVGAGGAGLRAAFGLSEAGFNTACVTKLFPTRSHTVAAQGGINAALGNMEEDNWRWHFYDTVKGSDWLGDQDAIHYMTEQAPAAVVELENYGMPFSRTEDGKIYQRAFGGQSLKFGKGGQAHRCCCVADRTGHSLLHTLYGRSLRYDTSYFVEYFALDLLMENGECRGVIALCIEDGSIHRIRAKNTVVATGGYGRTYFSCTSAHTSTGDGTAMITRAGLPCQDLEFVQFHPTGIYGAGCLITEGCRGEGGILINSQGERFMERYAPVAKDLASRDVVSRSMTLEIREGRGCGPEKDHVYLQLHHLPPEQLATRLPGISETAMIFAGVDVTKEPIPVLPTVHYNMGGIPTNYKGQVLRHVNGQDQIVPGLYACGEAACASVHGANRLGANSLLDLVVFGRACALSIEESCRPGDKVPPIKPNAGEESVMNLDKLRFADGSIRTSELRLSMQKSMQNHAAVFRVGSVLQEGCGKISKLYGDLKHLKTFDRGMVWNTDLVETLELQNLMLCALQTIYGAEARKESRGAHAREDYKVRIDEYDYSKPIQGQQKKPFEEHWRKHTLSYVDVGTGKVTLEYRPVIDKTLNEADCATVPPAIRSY
Chain of holo-SDHA-SDHAF2 complex (preformed from purified proteins) (human) (Q9NX18 37-166, chain 2 of 2, further chain): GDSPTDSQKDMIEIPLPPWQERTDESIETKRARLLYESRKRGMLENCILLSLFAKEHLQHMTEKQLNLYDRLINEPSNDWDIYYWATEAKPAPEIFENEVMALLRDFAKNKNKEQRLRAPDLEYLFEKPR
Chain of SDHAF4^E92N (Q5VUM1 21-108 E92N, stated change not applied): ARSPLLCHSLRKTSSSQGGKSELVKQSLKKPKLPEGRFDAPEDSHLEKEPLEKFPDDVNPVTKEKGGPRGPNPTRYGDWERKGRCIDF

“SDHAF4^E92N (from UniProt Q5VUM1 21-108) (natural protein)” gave a percent of SDHAF2 displaced from the SDHA-AF2 complex of 40 to 50%.
